Tests used:
[1] = tested on: fibrin; assay: Simulated fibrinolysis in healthy patient blood, T2Coagulation T2B versus TEG LY30; assay type: cell-based, human; settings: kaolin runs
Protocol: Five different healthy patient samples were used to test whether T2Coagulation was sensitive to fibrinolysis. Addition of tissue plasminogen activator (TPA) was used to simulate fibrinolysis by adding it at two levels to healthy patient blood. TPA cleaves fibrin as it forms. It was observed that fibrinolysis can be detected within 10 minutes on T2Coagulation, which is less than half the time required for detection on TEG. For all five patients there was a clear difference between healthy and fibrinolytic samples.
There are several potential features that can be used for this correlation. Three that were investigated were the difference between (i) the minimum and maximum T2B values (FIG. 13), (ii) the average of the T2B values over the final 25 minutes of the T2B curves, and (iii) the T2B values at 10 minutes. All had correlations with R^2 values between 0.72 and 0.79. The correlation plots show a higher sensitivity of T2Coagulation for fibrinolysis than TEG. This can be seen by the groupings for the different levels of fibrinolysis in FIG. 13. The healthy patient samples are circled with the solid line. […] The T2Coagulation T2B term can be detected in as little as 10 minutes, which is much faster than the TEG LY30 term can be detected, indicating the utility of the T2Coagulation signal for more rapid measurement of fibrinolysis.

[2] = tested on: whole blood fibrinolysis; assay: T2MR whole blood fibrinolysis with spiked TPA; assay type: cell-based, human; settings: TPA 100 U/mL, blood from a healthy donor
Protocol: The T2MR surface is also sensitive to whole blood fibrinolysis. To assess this, healthy donor samples were spiked with tissue plasminogen activator (TPA).
TPA was added at 100 U/mL to blood from a healthy donor. In the absence of TPA (see FIG. 27a) two stable peaks form at the expected clotting time. With 100 U/mL of TPA (see FIG. 27b) the clot forms at the expected time, but proves to be unstable after 20-30 minutes. Both the instability and the distance between the final T2 peaks indicate sensitivity to fibrinolysis induced by the presence of TPA.
The T2MR effect on fibrinolysis was expressed in AU values (arbitrary units; see FIG. 27c) obtained by calculating the difference between the maximum and minimum T2 value observed for the clot signal (or T2B) in the T2 time curve.
Fibrinolysis was monitored by T2 magnetic resonance (T2MR) in five patient blood samples with and without the addition of TPA (100 U/mL) (FIG. 27c). […] All other samples required addition of TPA to induce fibrinolysis, as confirmed by the reference method.

[3] = tested on: human platelets; assay: T2 relaxation 3D plots of clotting whole blood containing abciximab; assay type: cell-based
Protocol: T2 relaxation rate data was collected from CK blood samples drawn from healthy patients. For each sample, a series of T2 decay curves were measured over a period of 50 minutes. The decay curves were each processed using an inverse Laplace transform (ILT CONTIN) to provide an array of curves showing T2 intensity as a function of T2 time. […] FIG. 20 illustrates the 3D data sets for patient samples 29328 and 29350 collected on a Bruker minispec. […] At a time between 5 minutes and 30 minutes, the single water population diverged into two significant water populations. These two water populations correspond to the two components of the clot, i.e., the retracted clot and the serum surrounding the retracted clot. […] For some samples these two peaks were not entirely resolved. […]
In a first experiment, four aliquots of patient sample 29488 were prepared with different concentrations of abciximab (0, 2, 4, and 8 μg/mL) prior to initiation of the clotting process. The T2 relaxation times for the four samples were measuring over the course of clot formation and the corresponding 3D plots were determined using the technique described in Example 13. […] This physical change is evidenced and quantified in the corresponding 3D plots (FIG. 21), showing fast exchange of water within the uniform sample at the highest concentration of abciximab.

[4] = tested on: whole blood sample; assay: TEG clot strength (MA) of whole blood samples containing abciximab; assay type: cell-based, human; settings: patient sample 29494
Protocol: The TEG Hemostasis Analyzer provides quantitative and qualitative measurements of the physical properties of a clot (Samara et al., Thromb. Res. 115:89-94, 2005). In the present example, the maximum amplitude (MA) and the coagulation time (R) were measured for the thrombin generated clot sample. MA is an indicator of the viscoelasticity of clot formation or clot strength and is dependent on platelet aggregation and fibrin formation and polymerization. R is the period of time of latency until initial fibrin formation and has been correlated with the velocity of thrombin generation.
The clotting of a whole blood sample was perturbed using the antithrombotic agent abciximab (ReoPro®). Abciximab is the Fab fragment of a human-murine monoclonal antibody that binds to the Ith/IIIa receptor of human platelets and inhibits platelet aggregation. Abciximab serves to inhibit the retraction of a clot during the clotting process.
Samples containing abciximab were prepared according to the following procedure and referenced in the application and Figures by a number corresponding to the concentration of abciximab in units of μg/mL.
1. Blood was drawn from normal donors into six citrate tubes. Normal donors must not have taken aspirin or any anti-platelet drug in the past two weeks.
2. The six tubes of blood were pooled and mixed gently by inversion eight to ten times. Samples were used within two hours of collection.
3. A abciximab solution (10 mg/5 mL) was diluted at a ratio of 1:4 using saline as a diluent to form “solution 1.”
4. The blood was spiked with solution 1 and saline according to Table 5
5. […]
In a second experiment, five aliquots of patient sample 29494 were prepared with different concentrations (0, 2, 4, 8, and 0 μg/mL) of abciximab prior to initiation of the clotting process. The T2 relaxations times for the samples were measured in series, with each set of measurements lasting approximately 50 min. […] The corresponding TEG-determined MA values for these samples was 60.7, 61.4, 30.4, and 22.0, respectively.

B1: Cathflo®: recombinant alteplase manufactured by Genentech (protein, UniProt P00750 36-562, looked up)
Tissue-type plasminogen …: SYQVICRDEKTQMIYQQHQSWLRPVLRSNRVEYCWCNSGRAQCHSVPVKSCSEPRCFNGGTCQQALYFSDFVCQCPEGFAGKCCEIDTRATCYEDQGISYRGTWSTAESGAECTNWNSSALAQKPYSGRRPDAIRLGLGNHNYCRNPDRDSKPWCYVFKAGKYSSEFCSTPACSEGNSDCYFGNGSAYRGTHSLTESGASCLPWNSMILIGKVYTAQNPSAQALGLGKHNYCRNPDGDAKPWCHVLKNRRLTWEYCDVPSCSTCGLRQYSQPQFRIKGGLFADIASHPWQAAIFAKHRRSPGERFLCGGILISSCWILSAAHCFQERFPPHHLTVILGRTYRVVPGEEEQKFEVEKYIVHKEFDDDTYDNDIALLQLKSDSSRCAQESSVVRTVCLPPADLQLPDWTECELSGYGKHEALSPFYSERLKEAHVRLYPSSRCTSQHLLNRTVTDNMLCAGDTRSGGPQANLHDACQGDSGGPLVCLNDGRMTLVGIISWGLGCGQKDVPGVYTKVTNYLDWIRDNMRP
modifications: alteplase
notes: recombinant alteplase manufactured by Genentech
- degree of fibrinolysis of samples ([1]; 60 ng/mL Cathflo in healthy patient blood): partially fibrinolytic
- degree of fibrinolysis of samples ([1]; 118 ng/mL Cathflo in healthy patient blood): fully fibrinolytic

B2: tissue plasminogen activator (protein, UniProt P00750 36-562, looked up)
Tissue-type plasminogen …: SYQVICRDEKTQMIYQQHQSWLRPVLRSNRVEYCWCNSGRAQCHSVPVKSCSEPRCFNGGTCQQALYFSDFVCQCPEGFAGKCCEIDTRATCYEDQGISYRGTWSTAESGAECTNWNSSALAQKPYSGRRPDAIRLGLGNHNYCRNPDRDSKPWCYVFKAGKYSSEFCSTPACSEGNSDCYFGNGSAYRGTHSLTESGASCLPWNSMILIGKVYTAQNPSAQALGLGKHNYCRNPDGDAKPWCHVLKNRRLTWEYCDVPSCSTCGLRQYSQPQFRIKGGLFADIASHPWQAAIFAKHRRSPGERFLCGGILISSCWILSAAHCFQERFPPHHLTVILGRTYRVVPGEEEQKFEVEKYIVHKEFDDDTYDNDIALLQLKSDSSRCAQESSVVRTVCLPPADLQLPDWTECELSGYGKHEALSPFYSERLKEAHVRLYPSSRCTSQHLLNRTVTDNMLCAGDTRSGGPQANLHDACQGDSGGPLVCLNDGRMTLVGIISWGLGCGQKDVPGVYTKVTNYLDWIRDNMRP
notes: cleaves fibrin as it forms
- time after which the clot proves to be unstable [2]: 20 to 30 min

B3: abciximab (antibody, chains of the INN, looked up, V domains shown)
VH: EVQLQQSGTVLARPGASVKMSCEASGYTFTNYWMHWVKQRPGQGLEWIGAIYPGNSDTSYIQKFKGKAKLTAVTSTTSVYMELSSLTNEDSAVYYCTLYDGYYVFAYWGQGTLVTVSA
VL: EIVLTQSPVTLSVTPGDSVSLSCRASRDISNNLHWFQQTSHESPRLLIKYASQSMSGIPSRFSGSGSGTDFTLSINSVETEDFGMYFCQQTNSWPYTFGGGTKLEIK
modifications: Fab
- effect on clot associated T2 signal intensity ([3]; 8 μg/mL Reopro, T2reader, versus native sample): reduces the signal intensity of the clot associated signal
- phases (retracted clot and serum water populations) visible within the clot ([3]; highest concentration of abciximab (8 μg/mL), patient sample 29488, Bruker minispec): no longer two phases visible within the clot
- TEG-determined MA value ([4]; abciximab 2 μg/mL): 61.4
- TEG-determined MA value ([4]; abciximab 4 μg/mL): 30.4
- TEG-determined MA value ([4]; abciximab 8 μg/mL): 22.0

From US9599627B2, “NMR methods for monitoring blood clot formation” (T2 Biosystems, Inc., priority 2011, dated 2017)
